Residue numbers refer to the chain shown, from its start. Blank lines part the entries; values can stand above or below the binder they belong to.
Key:
[1] = target: T1, CD300c antigen (11832-H08H, Sino Biological) (human, UniProt Q08708 21-183); experiment: selection ELISA of Example 1.2, scFv periplasmic extract on coated CD300c antigen
T1 construct: Bought antigen; also called CD300c protein; CD300 antigen-like family member C
T1 sequence (looked up): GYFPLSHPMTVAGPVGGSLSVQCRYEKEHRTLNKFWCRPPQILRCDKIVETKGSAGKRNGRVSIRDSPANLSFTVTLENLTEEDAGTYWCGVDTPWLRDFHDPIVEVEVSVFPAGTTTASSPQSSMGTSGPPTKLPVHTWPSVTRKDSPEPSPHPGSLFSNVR
Protocol: In order to select anti-CD300c monoclonal antibodies specifically binding, with high binding affinity, to a CD300c antigen, ELISA was performed using the library pool obtained by the same method as in Example 1.1. More specifically, each of a CD300c antigen and a CD300a antigen in a coating buffer (0.1 M sodium carbonate, pH 9.0) was dispensed into an ELISA plate at a concentration of 5 μg/mL per well, followed by incubation at room temperature for 3 hours, to allow the antigen to bind to the plate. The unbound antigens were removed by washing three times using phosphate buffered saline-Tween 20 (PBST), and then 350 μL of PBST supplemented with 2% bovine serum albumin (BSA) was added to each well, followed by incubation at room temperature for 1 hour and then washing again using PBST. Then, 25 μg of a periplasmic extract containing scFv obtained by the same method as in Example 1.1 was added thereto, followed by incubation for 1 hour at room temperature for antigen binding. After 1 hour, the unbound scFv was removed by washing three times using PBST, and then 4 μg/mL of an antibody for detection was added, followed by incubation again at room temperature for 1 hour. Subsequently, the unbound antibodies for detection were removed using PBST, and then HRP-conjugated anti-rabbit IgG was added, followed by incubation at room temperature for 1 hour. The unbound antibodies were removed again using PBST. Subsequently, 3,3′,5,5′-tetramethylbenzidine (TMB) solution was added, followed by incubation for 10 minutes for development. Then, 2 N sulfuric acid solution was added to terminate the development reaction, and the absorbance was measured at 450 nm to identify the antibodies specifically binding to the CD300c antigen.

[2] = target: T2, mouse CD300c (mouse); experiment: cell-based or functional assay
T2 sequence (A2A7V7 whole entry, looked up): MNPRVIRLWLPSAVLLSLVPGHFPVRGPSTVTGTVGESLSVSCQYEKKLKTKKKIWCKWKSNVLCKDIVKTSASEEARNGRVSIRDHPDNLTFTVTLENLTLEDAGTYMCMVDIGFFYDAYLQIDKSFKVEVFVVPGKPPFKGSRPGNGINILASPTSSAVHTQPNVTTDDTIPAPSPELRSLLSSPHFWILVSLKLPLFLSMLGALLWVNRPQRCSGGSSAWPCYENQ

[3] = target: T1, CD300c antigen (11832-H08H, Sino …); experiment: binding ELISA, plate coated with CD300c antigen (8 µg/mL), HRP anti-Fc IgG detection
Protocol: In order to identify the antigen-binding ability of the anti-CD300c monoclonal antibodies produced in Example 1, binding ELISA was performed. Specifically, a CD300c antigen (11832-H08H, Sino Biological) or a CD300a antigen (12449-H08H, Sino Biological) in a coating buffer (0.1 M sodium carbonate, pH 9.0) was dispensed into an ELISA plate at a concentration of 8 μg/mL per well, followed by incubation at room temperature for 3 hours to allow the antigen to be bound to the plate. The unbound antigens were removed by washing three times using phosphate buffered saline-Tween 20 (PBST), and then 300 μL of PBST supplemented with 5% bovine serum albumin (BSA) was added to each well, followed by incubation at room temperature for 1 hour and then washing using PBST. Then, an anti-CD300c monoclonal antibody was diluted in quadruplicate and added thereto, followed by incubation for 1 hour at room temperature for antigen binding. After 1 hour, washing was performed three times using PBST to remove unbound anti-CD300c monoclonal antibody, and then 4 μg/mL of an antibody for detection (HRP conjugated anti-Fc IgG) was added, followed by incubation again at room temperature for 1 hour. Subsequently, the unbound antibody for detection was removed using PBST, and then TMB solution was added, followed by incubation for 10 minutes for development. Then, 2 N sulfuric acid solution was added to terminate the development reaction, and the absorbance was measured at 450 nm to identify the antibodies specifically binding to the CD300c antigen.

binding result [1]: binds
B1: CB301_H3L1_F4 (antibody, V domains shown)
VH: EVQLLESGGGLVQPGGSLRLSCAASGFTFSGYAMSWVRQAPGKGLEWVSAISGSGGSTYYADSVKGRFTISRDNSKNTLYLQMNSLRAEDTAVYYCARSPSGLFDYWGQGTLVTVSS
VL: QSVLTQPPSASGTPGQRVTISCGGNNIGSKRVHWYQQLPGTAPKLLIYNTSNKHSGVPDRFSGSKSGTSASLAISGLRSEDEADYYCSSYLQQHSLFGGGTKLTVL

cancer cell proliferation inhibitory effect, CT26 mouse colon cancer cells, 10 ug/mL antibody, 5 days, CCK-8 [2]: 38%
EC50 [3]: 0.17 µg/mL
B2: SL18 (antibody, V domains shown)
VH: RVQLLESGGGLVQPGGSLRLSCAASGFTFSDYHMHWVRQAPGKGLEWVSTISSSGGYTYYAESVKSRFTISRDNSKNTLYLQMNSLRAEDTAVYYCARSIRLPLDYWGQGTLVTVSS
VL: QSVLTQPPSASGTPGQRVTISCSGNNIGSKGVHWYQQLPGTAPKLLIYEDSKRPSGVRDRFSGSKSGTSASLAISGLRSEDEADYYCQSYDSTKGVVFGGGTKLTVL
notes: also called anti-CD300c monoclonal antibody SL18; CB301 antibody SL18

cancer cell proliferation inhibitory effect, CT26 mouse colon cancer cells, 10 ug/mL antibody, 5 days, CCK-8 [2]: 15%
EC50 [3]: 0.039 µg/mL
B3: CL10 (antibody, V domains shown)
VH: EVQLLESGGGLVQPGGSLRLSCAASGFTFSSYGMHWVRQAPGKGLEWVSAISGSGGSTYYADSVKGRFTISRDNSKNTLYLQMNSLRAEDTAVYYCASGYGLMDVWGQGTLVTVSS
VL: QSVLTQPPSASGTPGQRVTISCTRSSGIIASNYVQWYQQLPGTAPKLLIYRNNQRPSGVPDRFSGSKSGTSASLAISGLRSEDEADYYCSSYAGNNNLVFGGGTKLTVL
notes: also called anti-CD300c monoclonal antibody CL10; CB301 antibody CL10

binding result [1]: binds
B4: CB301_OPALTL_E6 (antibody, V domains shown)
VH: B3 VH with S57Y, S98R, G99W, Y100H, G101Y, L102S, M103F, V105Y
VL: QSVLTQPPSASGTPGQRVTISCSGSSSNIGNNYVSWYQQLPGTAPKLLIYRNNQRPSGVPDRFSGSKSGTSASLAISGLRSEDEADYYCQSYDNSNVLFGGGTKLTVL

binding result [1]: binds
B5: CB301_OPALTL_B5 (antibody, V domains shown)
VH: EVQLLESGGGLVQPGGSLRLSCAASGFTFSHYAMSWVRQAPGKGLEWVSAISGSGGSTYYADSVKGRFTISRDNSKNTLYLQMNSLRAEDTAVYYCARGWDSPTLTYFDSWGQGTLVTVSS
VL: QSVLTQPPSASGTPGQRVTISCSGTSSNIGNNDVSWYQQLPGTAPKLLIYQDTKRPSGVPDRFSGSKSGTSASLAISGLRSEDEADYYCAAWDDSLSGPVFGGGTKLTVL
